# From patent publication US6653444 (Dana-Farber, dated 2003)
# Target: CD28 (human, UniProt P10747 19-220)
# Test: cell-based or functional assay
# Sequence of CD28 (P10747 19-220): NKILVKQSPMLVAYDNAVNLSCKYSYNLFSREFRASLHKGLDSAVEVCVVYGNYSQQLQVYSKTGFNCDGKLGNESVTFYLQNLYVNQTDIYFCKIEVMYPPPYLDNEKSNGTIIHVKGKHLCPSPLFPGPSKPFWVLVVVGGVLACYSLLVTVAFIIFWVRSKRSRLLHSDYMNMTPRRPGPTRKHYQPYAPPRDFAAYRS
Binder,"IL-2 secretion with CHO-B7 relative to anti-CD28 mAb, PMA-stimulated CD28+ T cells [%]",fold enhancement of proliferation of PMA-treated human CD28+ T cells by fixed COS-hB7 cells [fold],fold increase in proliferation of PMA-treated human CD28+ T cells by fixed CHO-hB7 cells [fold],proliferation by CHO-B7 relative to anti-CD28 mAb [% less],fold enhancement of proliferation of PMA-treated human CD28+ T cells by fixed COS-mB7 cells [fold]
human B7 B cell activation antigen (ligand) VIHVTKEVKEVATLSCGHNVSVEELAQTRIYWQKEKKMVLTMMSGDMNIWPEYKNRTIFDITNNLSIVILALRPSDEGTYECVVLKYEKDAFKREHLAEVTLSVKADFPTPSISDFEIPTSNIRRIICSTSGGFPEPHLSWLENGEELNAINTTVSQDPETELYAVSSKLDFNMTTNHSFMCLIKYGHLRVNQTFNWNTTKQEHFPDNLLPSWAITLISVNGIFVICCLTYCFAPRCRERRRNERLRRESVRPV,~45,30,51,~28,
murine B7 (ligand) VDEQLSKSVKDKVLLPCRYNSPHEDESEDRIYWQKHDKVVLSVIAGKLKVWPEYKNRTLYDNTTYSLIILGLVLSDRGTYSCVVQKKERGTYGVKHLALVKLSIKADFSTPNITESGNPSADTKRITCFASGGFPKPRFSWLENGRELPGINTTISQDPESELYTISSQLDFNTTRNHTIKCLIKYGDAHVSEDFTWEKPPEDPPDSKNTLVLFGAGFGAVITVVVIVVIIKCFCKHRSCFRRNEASRETNNSLTFGPEEALAEQTVFL,,,,,29
